Data as given in US20160376333A1 (University of Washington, published 2016).
Changes are numbered by the printed parent chain.

T1: Epstein-Barr virus BHRF1 a.a. 1-161 with C-terminal avi-6his tag (Epstein-Barr virus)
T1 construct: also called EBV BHRF1; BHRF1-biotin
T1 chain: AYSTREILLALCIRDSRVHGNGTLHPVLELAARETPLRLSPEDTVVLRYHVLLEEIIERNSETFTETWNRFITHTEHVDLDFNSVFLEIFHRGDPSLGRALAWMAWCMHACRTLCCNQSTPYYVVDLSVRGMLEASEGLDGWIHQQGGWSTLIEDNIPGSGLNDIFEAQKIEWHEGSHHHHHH

B1: Index 30 (designed binder)
chain: GSRWFDAEDKMRERKDRAILQLLFMLWIIFYILWYGDDTEEAKRKAMAAWIALALIGIGDIFNAEAEFLEELERAIKQGQVSDQLKEELLKRMEDDKRDLEKRLYEFLLKALLQWMQG
B2: Index 33 (designed binder)
chain: GKQWQEAFEEARRRIEEKAREFEDRAKKEALLHLFFIPHDKEIADNSKKWIAWALMLIGDIFNLEEEAAERARRHVKRGEISEDDAKQIRKRLQEQAKRAAWWMRYWGEESAKFAFIG
B3: Index 34 (designed binder)
chain: GKFKKLFENYAELFARWVADKGKKLAEELREKAEKGLKLQKLWLIFTMIWIAIMLMSIGDAFNLALLAELWVQAAKNYGWLRDNEADEAEDRVRKFADEASRRALEKGLEALRKILEG
B4: Index 37 (designed binder)
chain: GDFWLKAIEIAGGRMLERARESWYRALYFILMVKLFYPSDDLRRIFTLRWIAESLKLIGDAFNLFELARELLELYYKYGWITLEKALKALWILLKLEEIFSKASKDLGERLAEEIERG
B5: Index 01 (designed binder)
chain: GKRLEETVEETERRLREALREVYLLILLLAEEAKKKDLKEQNRHEYVFKWIAFMLMAIGDIFNIAEESKRRLDLFAKWGLHDRNKIDEAKKKIDKLALEAIERAKKYGDWFLNELDKG
B6: X-CDP03 (designed binder)
chain: ADPKKVLDKAKDQAENRVRELKQKLEELYKEARKLDLTQEMRRELRNRAIAAILQAIGDLLNAIQQAKDEADKLKKAGLVNSQQLDELKRRLEELQNEAAEKAADYGEEFWLKLEY
B7: human Bcl-XL a.a. 1-205 with C-terminal avi-6his tag (other)
chain: SQSNRELVVDFLSYKLSQKGYSWSQFSDVEENRTEAPEGTESEMETPSAINGNPSWHLADSPAVNGATGHSSSLDAREVIPMAAVKQALREAGDEFELRYRRAFSDLTSQLHITPGTAYQSFEQVVNELFRDGVNWGRIVAFFSFGGALCVESVDKEMQVLVSRIAAWMATYLNDHLEPWIQENGGWDTFVELYGNNAAAESRKGLNDIFEAQKIEWHEGSHHHHHH
notes: also called BCL2L1
B8: X-CDP01 (designed binder)
chain: ADPKKVLDKAKDQAENRVRELKQKLEELYKEARKLDLTQEMRRELQARYIAAMLAAAGDIMEAIQQAKNEADKLKKAGLVNSQQLDELKRRLEELAKEAARKAEDYGREFQLKLEY
B9: X-CDP02 (designed binder)
chain: B8 chain with R43K, Q46V, M61V, E62Q, Q66D, E104T
B10: X-CDP11 (designed binder)
chain: ADPKKVLDKAKDQAENRVRELKQKLEELYKEARKLDLTQEMRRELRDRYIAAMLAAIGDLFNAIQWAKQEADKLKKAGLVNSQQLDELKRRLEELAEEAARKAEDYGEEFKLKLEY
B11: X-CDP10 (designed binder)
chain: B10 chain with D47E, I57A, F61W, N62Y, Q65T, W66Q, Q69R, A96L, K111R
B12: Index 03 (designed binder)
chain: GLDHDKIVDEARKKMEKKIREAKDKAKEFVLKALDNNHDLKQFRELAHKWIALMLMAIGDAFNIMMEAKRKAEWLREQGQQDEDKAEEAKEKLDKAFKEAAERFEEIAKIYGKQAKNG
B13: Index 02 (designed binder)
chain: GKSLLGIALEALEEAKRDLEKAKKQMEEMLKKKWKFDTTRDLKARASAEWIAAALKAIGDRFNAKLLIELGLDELFNKGLITQDIKEDIKRRAEEIFEKIERLIKQAIKDKDRFEKLG
B14: Index 35 (designed binder)
chain: GGDGVKELEELEKRKDEKKNKAEDRIKKFKDEAKYADDRTEDKEKLAHRWIALALDIIGDAFNLKEEARRRFLRHKFRGELDDSKKEYAEKEMKRFEDDVEKDAEELAQKAKEAFKEG
B15: X-CDP04 (designed binder)
chain: ADPKKVLDKAKDQAENRVRELKQKLEELYKEARKLDLTQEDRKRLLLQYIAAMLAAIGDLENAIRWAKREADKLKKAGLVNSQQLDELKRRLEELAKEAAEKAADYGEEFNLKLEY
B16: Index 36 (designed binder)
chain: GYTKEWIRDRAKEELDRFADEAKDKADKIRDDFEKRDDKNQIAAELTKKWIAAELEAIGDAFNRAEEAKERLKKLLKLGLTRKEEAEEAAEKLEKLEKEASEKLSKIAHEVSKHDDQG
B17: Index 31 (designed binder)
chain: GDQADKIKDKIKDEAKKKADEFKKRLEQFREYLEKVYSDDLKEIYLTIFWIALALMLIGDAFNEKMLLEWEFKERKKRNLRHEEELKEEKKKREEAEKALEWASKYASQVGKEAAEEG
B18: X-CDP08 (designed binder)
chain: ADPKKVLDKAKDRAENRVRKLKKELEKLYKEARKLDLTQEQRDRIINAAIAAMIAAFGDIFHAIMEAKEEARKLKKAGLVNSQQLDELKRRLDELDEEAAQRAEKLGKEFRLKFEY
B19: X-CDP06 (designed binder)
chain: B18 chain with K20E, E24K, D43N, R44K, I50M, M65Q, R72K, R111N
B20: X-CDP05 (designed binder)
chain: ADPKKVLDKAKDQAENRVRELKQKLEELYKEARKLDLTQEMRRQLRDQYIAAMLAAIGDLLNAIMQAKREADKLKKAGLVNSQQLDELKRRLEELEEEAAQKAADYGQEFLLKLEY
B21: human Bcl-B a.a. 11-175 with C-terminal avi-6his tag (other)
chain: ADPLRERTELLLADYLGYCAREPGTPEPAPSTPEAAVLRSAAARLRQIHRSFFSAYLGYPGNRFELVALMADSVLSDSPGPTWGRVVTLVTFAGTLLERGPLVTARWKKWGFQPRLKEQEGDVARDCQRLVALLSSRLMGQHRAWLQAQGGWDGFCHFFRTPFPGLNDIFEAQKIEWHEGSHHHHHH
notes: also called BCL2L10
B22: Index 29 (designed binder)
chain: GEVAKDLAKLAIDLAKKLMLLFWWFFELFKLFAKFTDEWQEWKARGTAFWIALSLAAIGDFFNARRRAELQAREGKQKGLTTEEKEKRWREHLKEAWEKLEKISRLAFLFAQEAENQG
B23: Index 32 (designed binder)
chain: GGDENKLKDYVKDEIERGLNEIEDLARKIEQLARRFFPKDEERMKFTMWWIAAALMAIGDIFNAKEYARERAEEIRRKGLRREEEARRIEKFIEEEAEKAAKKAAKLGDHLAEELFRG

What was measured:
[1] = target: T1, Epstein-Barr virus BHRF1 a.a. 1-161 …; test: yeast display library, FACS sort at 100 nM BHRF1, deep sequencing
[2] = target: T1, Epstein-Barr virus BHRF1 a.a. 1-161 …; test: yeast display library, FACS sort at 400 nM BHRF1, deep sequencing
[3] = target: T1, Epstein-Barr virus BHRF1 a.a. 1-161 …; test: yeast surface display; BHRF1 titrated on clonal yeast showing the design, fluorescence by flow cytometry (apparent KD)
[4] = target: B7; test: initial BLI screening (column 'Binds target?')
[5] = target: T2, Bim-BH3 motif fused to the C-terminus of maltose-binding protein (MBP) (human, UniProt O43521 141-166); test: BLI, biotinylated target on streptavidin sensor, MBP-Bim-BH3 in solution
T2 construct: domain: Bim-BH3 motif; also called MBP-Bim-BH3
T2 sequence (O43521 141-166 limits assumed): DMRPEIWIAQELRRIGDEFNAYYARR

Binder	Log2 enrichment ratio [1]	Log2 enrichment ratio [2]	binding result [4]	further results
B1	-2.58 log2	-4.1 log2		
B2	-4.18 log2	-3.85 log2		
B3	-3.41 log2	-2.21 log2		
B4	-3.13 log2	-2.14 log2		
B5	4.02 log2	3.54 log2		Kd [3]: 39 nM
B6			binds	
B7				Kd [5]: 1.56 nM
B8			binds	
B9			binds	
B10			binds	
B11			binds	
B12	2.52 log2	3.17 log2		Kd [3]: 160 nM
B13	3.92 log2	3.43 log2		Kd [3]: 110 nM
B14	-3.51 log2	-3.29 log2		
B15			binds	
B16	-3.6 log2	-3.65 log2		
B17	-3.55 log2	-4.21 log2		
B18			binds	
B19			binds	
B20			binds	
B21				Kd [5]: 7 nM
B22	-1.66 log2	-2.43 log2		
B23	-2 log2	-2.56 log2		
